Positions count from the first letter of the chain named. Numbers in names are those of the source. Each block holds one molecule with its values, some of them ahead of it.
What was measured:
[1] = system: myelofibrosis patients with splenomegaly; details: cited from earlier work
C57BL/6 mice = experiment: GDF trap in ruxolitinib treated animals, hematological parameters; type: in vivo; details: 60 mg/kg twice daily, four weeks
From the text: Ruxolitinib is a Janus kinase inhibitor that has been approved for the treatment of intermediate or high-risk myelofibrosis. […] However, a variety of hematological side effects have been observed in patients treated with ruxolitinib including, for example, anemia. Nine month old C57BL/6 mice were used to understand the effects of ActRIIB(L79D 25-131)-Fc treatment on various hematological parameters in ruxolitinib treated mice.
For this study, treatment was initiated at 6-7 months of age. Mice were placed into one of four groups: i) treatment with ActRIIB(L79D 25-131)-Fc on a dosing schedule of 10 mg/kg twice weekly; ii) treatment with ruxolitinib on a dosing schedule of 60 mg/kg twice daily; iii) treatment with ActRIIB(L79D 25-131)-Fc on a dosing schedule of 10 mg/kg twice weekly and ruxolitinib on a dosing schedule of 60 mg/kg twice daily; and iv) treatment with vehicle (TBS) twice weekly (i.e., control animals).

Activin B = target: T1, Activin B (Homo sapiens, UniProt P09529); experiment: Biacore steady-state affinity of ActRIIB-hFc proteins for activin B; type: binding; details: compared to counterparts lacking the L79D substitution
T1 sequence (P09529 293-407): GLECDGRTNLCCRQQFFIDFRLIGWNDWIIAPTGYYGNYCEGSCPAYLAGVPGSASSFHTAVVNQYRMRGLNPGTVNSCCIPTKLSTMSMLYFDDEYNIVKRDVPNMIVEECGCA
Method: (§1) Affinities of several ligands for ActRIIB(25-131)-hFc and its full-length counterpart ActRIIB(20-134)-hFc were evaluated in vitro with a Biacore™ instrument, and the results are summarized in the table below. Kd values were obtained by steady-state affinity fit due to very rapid association and dissociation of the complex, which prevented accurate determination of kon and koff. ActRIIB(25-131)-hFc bound activin A, activin B, and GDF11 with high affinity.
(§2) The affinity of GDF traps and other ActRIIB-hFc proteins for several ligands was evaluated in vitro with a Biacore™ instrument. Kd values were obtained by steady-state affinity fit due to the very rapid association and dissociation of the complex, which prevented accurate determination of kon and koff.

GDF11 [2] = target: T2, GDF11 (Homo sapiens, UniProt O95390); experiment: Biacore steady-state affinity of ActRIIB-hFc proteins for GDF11; type: binding; details: compared to counterparts lacking the L79D substitution
T2 sequence (O95390 299-407): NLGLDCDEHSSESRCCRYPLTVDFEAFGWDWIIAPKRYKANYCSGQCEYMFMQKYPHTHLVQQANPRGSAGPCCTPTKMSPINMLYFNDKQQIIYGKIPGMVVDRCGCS
Method: as §1, §2

Activin A [3] = target: T3, Activin A (Homo sapiens, UniProt P08476); experiment: Biacore steady-state affinity of ActRIIB-hFc proteins for activin A; type: binding; details: compared to counterparts lacking the L79D substitution
T3 sequence (P08476 311-426): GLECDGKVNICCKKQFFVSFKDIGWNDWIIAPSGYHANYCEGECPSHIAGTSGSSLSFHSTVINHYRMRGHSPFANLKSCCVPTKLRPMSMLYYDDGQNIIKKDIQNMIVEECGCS
Method: as §1, §2

Activin A [4] = target: T3, Activin A; experiment: Biacore assay, receptor captured with anti-hFc antibody, activin A injected; type: binding; details: for Koff (1/s), Activin A / Kon (1/Ms), Activin A / KD (M), Activin A: receptor captured via anti-hFc antibody; for binding to activin A, in words: cell-free Biacore assay
Method: (§3) Binding of certain ActRIIB-Fc proteins and GDF traps to ligands was tested in a Biacore™ assay.
(§4) The ActRIIB-Fc variants or wild-type protein were captured onto the system using an anti-hFc antibody. Ligands were injected and flowed over the captured receptor proteins.

GDF8 = target: T4, GDF8 (Homo sapiens, UniProt O14793); experiment: Biacore assay, receptor captured with anti-hFc antibody, GDF8 injected; type: binding; details: for Koff (1/s), GDF8: receptor captured via anti-hFc antibody; for myostatin binding, in words: cell-free Biacore assay
T4 sequence (O14793 267-375): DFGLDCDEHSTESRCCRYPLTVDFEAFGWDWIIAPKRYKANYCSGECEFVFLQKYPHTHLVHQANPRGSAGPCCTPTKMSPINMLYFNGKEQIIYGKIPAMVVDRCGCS
Method: as §3, §4

GDF11 [5] = target: T2, GDF11; experiment: Biacore assay, receptor captured with anti-hFc antibody, GDF11 injected; type: binding; details: for GDF11 binding, in words: cell-free Biacore assay; for Koff (1/s), GDF11: receptor captured via anti-hFc antibody
Method: as §3, §4

Activin A [6] = target: T3, Activin A; experiment: A-204 reporter gene assay, inhibition of activin A signaling; type: cell-based; parameters: host or cells: added to A-204 cells (human rhabdomyosarcoma)
From the text: (§5) An A-204 reporter gene assay was used to evaluate the effects of ActRIIB-Fc proteins and GDF traps on signaling by GDF-11 and activin A. Cell line: human rhabdomyosarcoma (derived from muscle). Reporter vector: pGL3(CAGA)12 (described in Dennler et al, 1998, EMBO 17: 3091-3100). The CAGA12 motif is present in TGF-beta responsive genes (e.g., PAI-1 gene), so this vector is of general use for factors signaling through SMAD2 and 3.
(§6) Day 1: Split A-204 cells into 48-well plate.
(§7) Day 2: A-204 cells transfected with 10 ug pGL3(CAGA)12 or pGL3(CAGA)12(10 ug)+pRLCMV (1 μg) and Fugene.
(§8) Day 3: Add factors (diluted into medium+0.1% BSA). Inhibitors need to be preincubated with factors for 1 hr before adding to cells. Six hrs later, cells were rinsed with PBS and lysed.
(§9) This is followed by a luciferase assay.
(§10) Activity of ActRIIB-Fc proteins and GDF traps was tested in a cell-based assay as described above. Some variants were tested in different C-terminal truncation constructs. As discussed above, truncations of five or fifteen amino acids caused reduction in activity.

GDF11 [7] = target: T2, GDF11; experiment: A-204 reporter gene assay, inhibition of GDF-11 signaling; type: cell-based; parameters: host or cells: added to A-204 cells (human rhabdomyosarcoma)
From the text: as §5, §6, §7, §8, §9, §10

Molecule: NC(=O)NO [HC, Hydroxycarbamide]
patients with reductions in spleen size from 25%-50% ([1]; Martinez-Trillos et al. (2010)): up to 35%

Molecule: Nc1nc(Cl)nc2c1ncn2[C@H]1C[C@H](O)[C@@H](CO)O1 [cladribine]
spleen response rate [1]: up to 50%

Molecule: Nc1cccc2c1CN(C1CCC(=O)NC1=O)C2=O (stereo not drawn) [lenalidomide]
spleen response rate [1]: 33%

decrease of hemoglobin levels compared to control animals (C57BL/6 mice): ~4%
decrease of red blood cell levels compared to control animals (C57BL/6 mice): ~4%
Molecule: N#CC[C@H](C1CCCC1)n1cc(-c2ncnc3[nH]ccc23)cn1 [ruxolitinib]

Molecule: O=C1CCC(N2C(=O)c3ccccc3C2=O)C(=O)N1 (stereo not drawn) [thalidomide]
spleen response rate [1]: < 20%

activin B binding, in words (Activin B): high affinity
GDF11 binding, in words (GDF11 [2]): high affinity
activin A binding, in words (Activin A [3]): high affinity
Molecule: ActRIIB(25-131)-hFc: human ActRIIB extracellular domain residues 25-131 fused to human Fc via three glycine residues, mature SEQ ID NO: 28

Koff (1/s), Activin A (Activin A [4]): 0.000628 s⁻¹
Kon (1/Ms), Activin A (Activin A [4]): 7.46e+06 M⁻¹ s⁻¹
Koff (1/s), GDF8 (GDF8): 0.000209 s⁻¹
B1: ActRIIB(R64K 20-129)-hFc: ActRIIB-hFc variant, residues 20-129, R64K substitution (protein)
chain: GRGEAETRECIYYNANWELERTNQSGLERCEGEQDKRLHCYASWKNSSGTIELVKKGCWLDDFNCYDRQECVATEENPQVYFCCCEGNFCNERFTHLPEAGGPEVTYEPPGGGTHTCPPCPAPELLGGPSVFLFPPKPKDTLMISRTPEVTCVVVDVSHEDPEVKFNWYVDGVEVHNAKTKPREEQYNSTYRVVSVLTVLHQDWLNGKEYKCKVSNKALPVPIEKTISKAKGQPREPQVYTLPPSREEMTKNQVSLTCLVKGFYPSDIAVEWESNGQPENNYKTTPPVLDSDGSFFLYSKLTVDKSRWQQGNVFSCSVMHEALHNHYTQKSLSLSPGK

GDF11 binding, in words (GDF11 [5]): retains
Koff (1/s), GDF11 (GDF11 [5]): 0.000439 s⁻¹
inhibition of activin A activity, in words (Activin A [6]): substantial loss
inhibition of GDF-11 activity, in words (GDF11 [7]): almost wild-type
binding to activin A, in words (Activin A [4]): markedly decreased (non-quantifiable)
KD (M), Activin A (Activin A [4]): Low binding
myostatin binding, in words (GDF8): retains
Koff (1/s), GDF8 (GDF8): 0.00083 s⁻¹
B2: ActRIIB(L79D 20-134)-hFc: GDF trap: ActRIIB amino acids 20-134 with L79D substitution fused to human Fc, SEQ ID NO: 29 (protein)
chain: GRGEAETRECIYYNANWELERTNQSGLERCEGEQDKRLHCYASWRNSSGTIELVKKGCWDDDFNCYDRQECVATEENPQVYFCCCEGNFCNERFTHLPEAGGPEVTYEPPPTAPTGGGTHTCPPCPAPELLGGPSVFLFPPKPKDTLMISRTPEVTCVVVDVSHEDPEVKFNWYVDGVEVHNAKTKPREEQYNSTYRVVSVLTVLHQDWLNGKEYKCKVSNKALPVPIEKTISKAKGQPREPQVYTLPPSREEMTKNQVSLTCLVKGFYPSDIAVEWESNGQPENNYKTTPPVLDSDGSFFLYSKLTVDKSRWQQGNVFSCSVMHEALHNHYTQKSLSLSPGK

Koff (1/s), GDF8 (GDF8): 2.03e-05 s⁻¹
B3: ActRIIB(K74A 20-134)-hFc: ActRIIB(20-134)-hFc variant with K74A substitution (protein)
chain: B2 chain with K55A, D60L

Koff (1/s), Activin A (Activin A [4]): 0.000417 s⁻¹
Kon (1/Ms), Activin A (Activin A [4]): 5.02e+06 M⁻¹ s⁻¹
Koff (1/s), GDF8 (GDF8): 0.00018 s⁻¹
B4: ActRIIB(P129S, P130R 20-134)-hFc: ActRIIB(20-134)-hFc variant with P129S and P130R substitutions (protein)
chain: B2 chain with D60L, P110S, P111R

Koff (1/s), GDF11 (GDF11 [5]): 2.41e-05 s⁻¹
Koff (1/s), Activin A (Activin A [4]): 0.000325 s⁻¹
Kon (1/Ms), Activin A (Activin A [4]): 6.82e+06 M⁻¹ s⁻¹
Koff (1/s), GDF8 (GDF8): 4.71e-05 s⁻¹
B5: ActRIIB(R64K 20-134)-hFc: ActRIIB(20-134)-hFc variant with R64K substitution (protein)
chain: B2 chain with R45K, D60L

Koff (1/s), GDF11 (GDF11 [5]): 6.35e-05 s⁻¹
Koff (1/s), Activin A (Activin A [4]): 0.000346 s⁻¹
Kon (1/Ms), Activin A (Activin A [4]): 3.34e+06 M⁻¹ s⁻¹
B6: ActRIIB(A24N 20-134)-hFc: ActRIIB(20-134)-hFc variant with A24N substitution (protein)
chain: B2 chain with A5N, D60L

GDF11 binding, in words (GDF11 [5]): retains
Koff (1/s), GDF11 (GDF11 [5]): 0.000274 s⁻¹
inhibition of activin A activity, in words (Activin A [6]): substantial loss
inhibition of GDF-11 activity, in words (GDF11 [7]): almost wild-type
binding to activin A, in words (Activin A [4]): markedly decreased (non-quantifiable)
KD (M), Activin A (Activin A [4]): Low binding
myostatin binding, in words (GDF8): retains
Koff (1/s), GDF8 (GDF8): 0.0009 s⁻¹
B7: ActRIIB(L79E 20-134)-hFc: GDF trap form with a glutamate rather than an aspartate at position 79, human Fc fusion (protein)
chain: B2 chain with D60E

Source: US12194076B2, “Methods and compositions for treating myelofibrosis” (Acceleron Pharma Inc., priority 2016, dated 2025)
